Assays:
IRS-2 = experiment: 32P metabolic labeling and immunoprecipitation of IRS-2, Mv1Lu cells; format: cell-based, mink; conditions: Mv1Lu; for Induction of specific dephosphorylation (mobility change) of 32P-labeled IRS-2: IGFBPs 1 μg/ml, TGF-β1 20 pM
acidic pH binding sites [1] = target: acidic pH binding sites (Neogale vison, UniProt A0A8C7BSJ2); experiment: Specific binding of 125I-ligands to Mv1Lu cells at acidic pH; set-up: species or system mink
acidic pH binding sites [2] = target: T1, acidic pH binding sites (Mus musculus, UniProt P14824); experiment: Specific binding of 125I-ligands to MEF cells at acidic pH; conditions: 10 μM protein, pH 5.5, MEF
T1 sequence (P14824 2-673): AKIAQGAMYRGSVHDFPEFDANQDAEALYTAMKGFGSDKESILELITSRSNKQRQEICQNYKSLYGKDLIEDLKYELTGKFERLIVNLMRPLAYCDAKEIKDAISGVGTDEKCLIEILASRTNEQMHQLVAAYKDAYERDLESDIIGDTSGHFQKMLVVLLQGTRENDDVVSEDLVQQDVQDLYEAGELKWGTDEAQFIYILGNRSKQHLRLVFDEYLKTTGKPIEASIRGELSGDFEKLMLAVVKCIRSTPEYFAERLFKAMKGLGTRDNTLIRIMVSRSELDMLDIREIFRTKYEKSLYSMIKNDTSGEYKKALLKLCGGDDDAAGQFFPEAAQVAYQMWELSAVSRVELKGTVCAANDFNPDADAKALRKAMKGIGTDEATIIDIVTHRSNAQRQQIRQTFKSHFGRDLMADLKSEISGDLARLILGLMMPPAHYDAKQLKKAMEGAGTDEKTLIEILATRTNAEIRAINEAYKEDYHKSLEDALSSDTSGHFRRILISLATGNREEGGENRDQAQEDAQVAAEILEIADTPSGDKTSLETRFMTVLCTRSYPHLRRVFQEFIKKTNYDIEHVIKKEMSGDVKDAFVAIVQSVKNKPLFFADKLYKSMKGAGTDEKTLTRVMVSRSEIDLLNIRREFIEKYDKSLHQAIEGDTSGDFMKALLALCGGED

[3] = tested on: TβR-V purified from bovine liver plasma membranes; experiment: 125I-IGFBP-3 / 125I-TGF-β1 affinity labeling of purified TβR-V; format: binding; conditions: DSS, β1^25(41-65) 20 μM, RAP 10-40 μg/ml, α2M* 100 nM, lactoferrin 100 nM
LRP-1 [4] = target: T2, LRP-1 (Mus musculus, UniProt Q91ZX7); experiment: 125I-α2M* binding to MEF cells at pH 7.4; conditions: 10 μM protein, pH 7.4, MEF
T2 construct: endogenous in cells; host or cells: MEF (mouse embryonic fibroblasts)

acidic pH binding sites [5] = target: T1, acidic pH binding sites; experiment: Specific binding of 125I-ligands to PEA-13 cells at acidic pH; set-up: endogenous in cells; host or cells: PEA-13 (LRP-1-deficient mouse embryonic fibroblasts); conditions: 10 μM protein, pH 5.5, PEA-13
LRP-1 [6] = experiment: 125I-α2M* binding to Mv1Lu cells at pH 7.4; set-up: species or system mink; conditions: 10 μM protein, pH 7.4, Mv1Lu
Mv1Lu cells = experiment: [methyl-3H] thymidine incorporation (DNA synthesis), Mv1Lu cells; format: cell-based, mink; conditions: Mv1Lu cells

acidic pH binding sites (Neogale vison, UniProt A0A8C7BSJ2), sequence (A0A8C7BSJ2 entry or part of it): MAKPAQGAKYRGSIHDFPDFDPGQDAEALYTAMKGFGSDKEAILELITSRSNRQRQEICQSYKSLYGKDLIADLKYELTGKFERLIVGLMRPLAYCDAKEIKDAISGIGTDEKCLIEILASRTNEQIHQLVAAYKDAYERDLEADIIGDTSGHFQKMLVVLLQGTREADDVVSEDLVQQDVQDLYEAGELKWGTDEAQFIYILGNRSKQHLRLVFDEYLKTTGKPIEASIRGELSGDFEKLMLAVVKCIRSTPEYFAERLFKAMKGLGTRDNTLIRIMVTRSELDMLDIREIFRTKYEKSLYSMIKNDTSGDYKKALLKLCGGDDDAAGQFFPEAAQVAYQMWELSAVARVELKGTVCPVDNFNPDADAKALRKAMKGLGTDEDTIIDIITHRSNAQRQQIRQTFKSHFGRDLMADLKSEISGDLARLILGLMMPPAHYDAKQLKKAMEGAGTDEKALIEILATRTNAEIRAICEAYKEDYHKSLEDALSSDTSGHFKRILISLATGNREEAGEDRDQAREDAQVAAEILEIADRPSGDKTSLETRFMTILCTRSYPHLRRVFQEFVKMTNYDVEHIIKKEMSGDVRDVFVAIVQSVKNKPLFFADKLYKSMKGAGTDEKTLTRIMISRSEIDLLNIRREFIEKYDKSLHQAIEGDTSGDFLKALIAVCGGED
T2 sequence (Q91ZX7 20-4545): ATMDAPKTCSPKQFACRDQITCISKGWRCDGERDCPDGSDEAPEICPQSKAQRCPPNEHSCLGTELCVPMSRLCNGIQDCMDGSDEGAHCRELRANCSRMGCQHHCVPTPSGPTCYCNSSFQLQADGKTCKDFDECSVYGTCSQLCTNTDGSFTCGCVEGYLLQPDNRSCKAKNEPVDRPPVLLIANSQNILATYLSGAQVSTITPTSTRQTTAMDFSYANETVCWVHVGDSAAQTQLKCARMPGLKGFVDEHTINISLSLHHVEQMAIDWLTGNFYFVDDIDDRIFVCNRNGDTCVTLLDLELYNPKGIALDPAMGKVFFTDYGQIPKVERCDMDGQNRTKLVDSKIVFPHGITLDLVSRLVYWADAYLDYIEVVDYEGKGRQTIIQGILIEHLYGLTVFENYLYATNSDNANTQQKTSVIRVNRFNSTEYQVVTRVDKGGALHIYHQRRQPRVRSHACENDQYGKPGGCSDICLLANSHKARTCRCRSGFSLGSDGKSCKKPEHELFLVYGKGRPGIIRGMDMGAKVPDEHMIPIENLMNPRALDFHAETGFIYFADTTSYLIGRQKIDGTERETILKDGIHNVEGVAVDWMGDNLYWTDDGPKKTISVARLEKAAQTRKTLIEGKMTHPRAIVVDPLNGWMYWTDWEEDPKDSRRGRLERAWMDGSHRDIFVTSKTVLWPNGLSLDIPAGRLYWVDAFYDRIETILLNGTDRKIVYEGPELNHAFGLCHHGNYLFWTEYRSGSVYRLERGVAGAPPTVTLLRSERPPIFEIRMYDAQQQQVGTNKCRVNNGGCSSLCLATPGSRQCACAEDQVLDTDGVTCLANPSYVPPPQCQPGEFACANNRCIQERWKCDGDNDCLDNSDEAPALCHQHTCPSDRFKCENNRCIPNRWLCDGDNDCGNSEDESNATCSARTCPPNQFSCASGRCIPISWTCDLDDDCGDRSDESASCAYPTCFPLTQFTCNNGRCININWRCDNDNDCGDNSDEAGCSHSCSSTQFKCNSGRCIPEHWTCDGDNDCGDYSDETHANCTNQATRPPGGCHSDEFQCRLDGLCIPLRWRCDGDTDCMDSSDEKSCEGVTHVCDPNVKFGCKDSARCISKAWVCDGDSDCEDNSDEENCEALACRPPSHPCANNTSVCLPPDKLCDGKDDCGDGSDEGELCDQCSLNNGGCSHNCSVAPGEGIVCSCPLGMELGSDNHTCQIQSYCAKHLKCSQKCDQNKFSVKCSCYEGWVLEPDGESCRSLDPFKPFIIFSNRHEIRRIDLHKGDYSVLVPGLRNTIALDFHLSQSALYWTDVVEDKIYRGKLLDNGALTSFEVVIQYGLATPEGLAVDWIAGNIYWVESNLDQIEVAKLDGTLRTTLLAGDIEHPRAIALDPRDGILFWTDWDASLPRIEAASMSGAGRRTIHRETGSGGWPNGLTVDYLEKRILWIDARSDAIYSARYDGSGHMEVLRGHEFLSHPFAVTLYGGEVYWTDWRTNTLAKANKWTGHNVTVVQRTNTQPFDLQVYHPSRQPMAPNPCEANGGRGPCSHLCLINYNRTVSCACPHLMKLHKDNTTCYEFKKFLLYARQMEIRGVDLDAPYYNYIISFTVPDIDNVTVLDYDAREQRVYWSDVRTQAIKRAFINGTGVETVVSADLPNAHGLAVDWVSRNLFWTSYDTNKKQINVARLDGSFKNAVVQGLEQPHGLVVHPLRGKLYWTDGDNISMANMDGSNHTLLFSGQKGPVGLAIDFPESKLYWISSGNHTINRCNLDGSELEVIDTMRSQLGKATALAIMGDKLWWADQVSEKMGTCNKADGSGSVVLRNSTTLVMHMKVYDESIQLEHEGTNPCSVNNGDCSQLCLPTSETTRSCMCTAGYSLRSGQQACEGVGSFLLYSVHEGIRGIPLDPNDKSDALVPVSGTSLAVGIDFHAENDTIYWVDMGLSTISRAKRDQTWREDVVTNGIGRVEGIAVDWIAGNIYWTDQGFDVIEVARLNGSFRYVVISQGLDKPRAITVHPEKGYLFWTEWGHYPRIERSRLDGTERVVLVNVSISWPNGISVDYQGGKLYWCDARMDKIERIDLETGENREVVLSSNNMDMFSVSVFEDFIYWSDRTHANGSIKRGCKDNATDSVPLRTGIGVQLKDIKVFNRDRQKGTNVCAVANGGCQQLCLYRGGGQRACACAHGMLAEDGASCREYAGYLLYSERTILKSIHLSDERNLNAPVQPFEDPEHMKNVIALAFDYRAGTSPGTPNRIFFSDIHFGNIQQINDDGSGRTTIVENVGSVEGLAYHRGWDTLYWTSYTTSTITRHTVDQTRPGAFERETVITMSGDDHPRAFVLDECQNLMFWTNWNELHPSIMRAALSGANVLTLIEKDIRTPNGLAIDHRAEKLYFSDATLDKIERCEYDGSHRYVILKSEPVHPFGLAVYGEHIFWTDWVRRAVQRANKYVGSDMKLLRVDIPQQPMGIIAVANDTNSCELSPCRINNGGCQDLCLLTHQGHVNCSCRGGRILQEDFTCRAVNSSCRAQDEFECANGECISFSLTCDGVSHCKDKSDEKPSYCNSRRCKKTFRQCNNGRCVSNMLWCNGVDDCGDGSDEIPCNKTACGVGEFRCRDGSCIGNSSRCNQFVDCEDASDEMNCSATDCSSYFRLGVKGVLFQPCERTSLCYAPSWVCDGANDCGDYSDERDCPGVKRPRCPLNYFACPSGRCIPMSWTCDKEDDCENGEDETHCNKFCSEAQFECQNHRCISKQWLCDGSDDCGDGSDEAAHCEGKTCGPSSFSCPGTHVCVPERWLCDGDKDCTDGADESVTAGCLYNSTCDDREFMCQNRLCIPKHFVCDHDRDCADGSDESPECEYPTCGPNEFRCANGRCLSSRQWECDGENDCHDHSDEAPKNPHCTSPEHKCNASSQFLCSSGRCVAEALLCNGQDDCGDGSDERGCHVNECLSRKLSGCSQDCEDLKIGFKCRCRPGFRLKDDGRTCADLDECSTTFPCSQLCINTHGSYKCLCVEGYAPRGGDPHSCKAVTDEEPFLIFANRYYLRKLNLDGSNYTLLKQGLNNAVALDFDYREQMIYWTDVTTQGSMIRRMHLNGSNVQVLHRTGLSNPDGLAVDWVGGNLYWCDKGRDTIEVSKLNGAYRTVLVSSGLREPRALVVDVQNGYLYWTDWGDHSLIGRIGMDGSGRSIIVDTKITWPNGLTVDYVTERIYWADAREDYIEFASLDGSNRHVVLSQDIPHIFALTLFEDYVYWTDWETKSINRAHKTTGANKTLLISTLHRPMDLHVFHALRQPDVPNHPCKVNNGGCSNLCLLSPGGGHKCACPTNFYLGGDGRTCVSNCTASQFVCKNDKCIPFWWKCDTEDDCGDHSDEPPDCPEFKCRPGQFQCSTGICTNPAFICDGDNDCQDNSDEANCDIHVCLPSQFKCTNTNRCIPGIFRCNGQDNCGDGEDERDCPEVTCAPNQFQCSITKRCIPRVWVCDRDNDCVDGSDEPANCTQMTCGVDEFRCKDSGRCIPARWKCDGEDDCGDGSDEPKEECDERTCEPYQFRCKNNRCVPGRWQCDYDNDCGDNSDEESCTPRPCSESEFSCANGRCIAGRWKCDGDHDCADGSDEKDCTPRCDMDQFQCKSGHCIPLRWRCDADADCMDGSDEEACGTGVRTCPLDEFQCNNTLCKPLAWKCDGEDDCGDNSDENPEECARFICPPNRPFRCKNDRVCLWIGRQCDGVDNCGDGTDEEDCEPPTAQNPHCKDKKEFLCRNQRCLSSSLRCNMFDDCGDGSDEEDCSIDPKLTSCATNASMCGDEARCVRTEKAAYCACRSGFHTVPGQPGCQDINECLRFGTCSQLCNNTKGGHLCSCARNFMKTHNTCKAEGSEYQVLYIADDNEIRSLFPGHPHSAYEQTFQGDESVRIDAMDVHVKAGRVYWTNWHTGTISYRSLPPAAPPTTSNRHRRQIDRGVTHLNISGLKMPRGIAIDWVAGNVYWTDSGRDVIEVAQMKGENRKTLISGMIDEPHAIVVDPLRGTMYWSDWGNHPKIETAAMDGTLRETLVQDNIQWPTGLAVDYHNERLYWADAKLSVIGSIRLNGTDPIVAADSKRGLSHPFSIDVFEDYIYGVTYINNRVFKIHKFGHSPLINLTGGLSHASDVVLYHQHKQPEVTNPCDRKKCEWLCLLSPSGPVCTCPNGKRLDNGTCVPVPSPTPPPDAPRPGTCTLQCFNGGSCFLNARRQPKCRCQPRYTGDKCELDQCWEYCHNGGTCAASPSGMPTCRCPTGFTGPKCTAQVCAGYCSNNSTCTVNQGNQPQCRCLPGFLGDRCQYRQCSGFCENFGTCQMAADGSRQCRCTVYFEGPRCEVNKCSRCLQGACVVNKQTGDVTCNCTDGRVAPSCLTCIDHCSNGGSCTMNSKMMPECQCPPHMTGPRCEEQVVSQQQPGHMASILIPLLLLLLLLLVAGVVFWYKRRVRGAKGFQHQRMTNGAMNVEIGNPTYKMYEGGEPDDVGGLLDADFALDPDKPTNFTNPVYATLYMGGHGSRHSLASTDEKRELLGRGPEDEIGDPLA

B1: IGFBP-1: IGFBP known not to bind to the IGFBP-3 receptor (protein)
chain: APWQCAPCSAEKLALCPPVSASCSEVTRSAGCGCCPMCALPLGAACGVATARCARGLSCRALPGEQQPLHALTRGQGACVQESDASAPHAAEAGSPESPESTEITEEELLDNFHLMAPSEEDHSILWDAISTYDGSKALHVTNIKKWKEPCRIELYRVVESLAKAQETSGEEISKFYLPNCNKNGFYHSRQCETSMDGEAGLCWCVYPWNGKRIPGSPEIRGDPNCQIYFNVQN
Induction of specific dephosphorylation (mobility change) of 32P-labeled IRS-2 (IRS-2): did not induce

B2: lactoferrin: bovine lactoferrin, an LRP-1 ligand (protein, UniProt P24627 20-708, looked up)
Lactotransferrin: APRKNVRWCTISQPEWFKCRRWQWRMKKLGAPSITCVRRAFALECIRAIAEKKADAVTLDGGMVFEAGRDPYKLRPVAAEIYGTKESPQTHYYAVAVVKKGSNFQLDQLQGRKSCHTGLGRSAGWIIPMGILRPYLSWTESLEPLQGAVAKFFSASCVPCIDRQAYPNLCQLCKGEGENQCACSSREPYFGYSGAFKCLQDGAGDVAFVKETTVFENLPEKADRDQYELLCLNNSRAPVDAFKECHLAQVPSHAVVARSVDGKEDLIWKLLSKAQEKFGKNKSRSFQLFGSPPGQRDLLFKDSALGFLRIPSKVDSALYLGSRYLTTLKNLRETAEEVKARYTRVVWCAVGPEEQKKCQQWSQQSGQNVTCATASTTDDCIVLVLKGEADALNLDGGYIYTAGKCGLVPVLAENRKSSKHSSLDCVLRPTEGYLAVAVVKKANEGLTWNSLKDKKSCHTAVDRTAGWNIPMGLIVNQTGSCAFDEFFSQSCAPGADPKSRLCALCAGDDQGLDKCVPNSKEKYYGYTGAFRCLAEDVGDVAFVKNDTVWENTNGESTADWAKNLNREDFRLLCLDGTRKPVTEAQSCHLAVAPNHAVVSRSDRAAHVKQVLLHQQALFGKNGKNCPDKFCLFKSETKNLLFNDNTECLAKLGGRPTYEEYLGTEYVTAIANLKKCSTSPLLEACAFLTR
Specific binding of ^125I-α2M* (acidic pH binding sites [1]; 10 μM protein, pH 5.5, Mv1Lu): completely blocked
IC50 (acidic pH binding sites [1]; Mv1Lu cells, pH 5 or 6, read-out: IC50, inhibition of ^125I-α2M* binding to cells): ~50 nM
Specific binding of ^125I-α2M* (acidic pH binding sites [2]): completely blocked
^125I-TGF-β1 binding to purified TβR-V ([3]; 0.1 nM 125I-TGF-β1, […] 0° C.): did not have a significant effect
^125I-IGFBP-3 binding to purified TβR-V ([3]; 10 nM 125I-IGFBP-3, […] 0° C.): did not have a significant effect
^125I-α2M* binding (LRP-1 [4]): did not have a significant effect
Specific binding of ^125I-α2M* (acidic pH binding sites [5]): completely blocked
^125I-α2M* binding (LRP-1 [6]): did not have a significant effect

B3: (Q^3A^4Y^15L^16) IGF-I: an IGF-I analog which has a low affinity for IGFBP-3 (protein, UniProt P05019 49-118, looked up, variant E3Q T4A Q15Y F16L)
Insulin-like growth factor 1: GPQALCGAELVDALYLVCGDRGFYFNKPTGYGSSSRRAPQTGIVDECCFRSCDLRRLEMYCAPLKPAKSA
modifications: Insulin-like growth factor I
Blocking of IGFBP-3-induced specific dephosphorylation of IRS-2 by growth factors/cytokines (IRS-2; IGFBP-3 1 μg/ml […] then factor 10 nM (TGF-β1 20 pM) 0.5 hr): blocked
Blocking of IGFBP-3-induced growth inhibition (Mv1Lu cells): completely blocked

B4: IGFBP-2: IGFBP known not to bind to the IGFBP-3 receptor (protein, UniProt P18065 36-325, looked up)
Insulin-like growth …: AEVLFRCPPCTPERLAACGPPPVAPPAAVAAVAGGARMPCAELVREPGCGCCSVCARLEGEACGVYTPRCGQGLRCYPHPGSELPLQALVMGEGTCEKRRDAEYGASPEQVADNGDDHSEGGLVENHVDSTMNMLGGGGSAGRKPLKSGMKELAVFREKVTEQHRQMGKGGKHHLGLEEPKKLRPPPARTPCQQELDQVLERISTMRLPDERGPLEHLYSLHIPNCDKHGLYNLKQCKMSLNGQRGECWCVNPNTGKLIQGAPTIRGDPECHLFYNEQQEARGVHTQRMQ
Induction of specific dephosphorylation (mobility change) of 32P-labeled IRS-2 (IRS-2): did not induce

— patent publication US7741283B2, “Compositions and methods for inhibiting cell proliferation” (St. Louis University, priority 2003, dated 2010)
